In test [1] the target is T1, human MSLN-R2-his protein (human, UniProt Q13421 391-486).
T1 construct: it is put last here; also called human MSLN-R2 protein; hMSLN-R2-his; not shown: His tag
Briefly: ELISA on coated antigen, antibody 0.02 nM. (An ELISA detects its analyte on a solid surface through an enzyme-linked reagent.)

For test [2], the target named is T1, human MSLN-R2-his protein. Briefly: ELISA on coated antigen, antibody 200 nM.
Experimental: (§1) The plate was sealed with a plastic film and incubated at 4° C. overnight. The next day, the plate was washed twice with PBST, and a blocking buffer [PBS+2% (w/w) BSA] was added for blocking at room temperature for 2 h. The blocking buffer was discarded, and a chimeric antibody or negative control antibody serially diluted from 100 nM was added at 50 μL/well. After incubation at 37° C. for 2 h, the plate was washed 3 times with PBST. […] After incubation at 37° C. for 2 h, the plate was washed 5 times with PBST. A TMB substrate was added at 50 μL/well for incubation at room temperature for 5-10 min, and then a stop solution (1.0 N HCl) was added at 50 μL/well.
The target in test [3] is T2, human MSLN-R3-his protein (human, UniProt Q13421 487-598).
T2 construct: it is put last here; also called human MSLN-R3 protein; hMSLN-R3-his; not shown: His tag
Briefly: ELISA on coated antigen, antibody 0.002 nM.

Test [4] concerns the target T1, human MSLN-R2-his protein. Briefly: ELISA on coated antigen, antibody 0.002 nM.
Experimental: as §1
In test [5] the target is T2, human MSLN-R3-his protein. Briefly: ELISA on coated antigen, antibody 2 nM.
Test [6] deals with T1, human MSLN-R2-his protein. Briefly: ELISA on coated antigen, antibody 2 nM.
Experimental: as §1
For test [7], the target named is T2, human MSLN-R3-his protein. The test can be described thus: ELISA on coated antigen, antibody 0.0002 nM.
In test [8] the target is T2, human MSLN-R3-his protein. The test can be described thus: ELISA on coated antigen, antibody 0.2 nM.
Experimental: as §1
The target in test [9] is T2, human MSLN-R3-his protein. The test can be described thus: ELISA on coated antigen, antibody 20 nM.
Experimental: as §1
Test [10] deals with T1, human MSLN-R2-his protein. The test can be described thus: ELISA on coated antigen, antibody 20 nM.
Test [11] concerns the target T1, human MSLN-R2-his protein. The test can be described thus: ELISA on coated antigen, antibody 0.2 nM.
Experimental: as §1
The target of test [12] is T2, human MSLN-R3-his protein. The test can be described thus: ELISA on coated antigen, antibody 0.02 nM.
Experimental: as §1
Test [13] deals with T1, human MSLN-R2-his protein. Briefly: ELISA on coated antigen, no antibody (blank, column 'none').
Experimental: as §1
Test [14] concerns the target T2, human MSLN-R3-his protein. Described as above.
Experimental: as §1
The target of test [15] is T2, human MSLN-R3-his protein. The test can be described thus: ELISA on coated antigen, antibody 200 nM.
Experimental: as §1
Test [16] addresses T1, human MSLN-R2-his protein. Briefly: ELISA on coated antigen, antibody 0.0002 nM.
Experimental: as §1

Our source for the OD450 values is patent publication US20250250357A1 (NANJING ZAIMING PHARMACEUTICAL, published 2025).

T2 sequence (Q13421 495-606): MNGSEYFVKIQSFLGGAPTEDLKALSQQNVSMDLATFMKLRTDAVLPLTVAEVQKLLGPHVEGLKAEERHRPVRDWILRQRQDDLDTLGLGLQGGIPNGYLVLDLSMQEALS
T1 sequence (Q13421 other isoform, or with tags, fused parts or gaps): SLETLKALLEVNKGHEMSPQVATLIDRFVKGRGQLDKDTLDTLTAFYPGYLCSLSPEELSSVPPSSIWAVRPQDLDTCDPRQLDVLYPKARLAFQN

B1: Tab106 (YP218, hIgG1) (antibody, V domains shown)
VH: QQQLEESGGGLVKPEGSLTLTCKASGFDLGFYFYACWVRQAPGKGLEWIACIYTAGSGSTYYASWAKGRFTISKASSTTVTLQMTSLAAADTATYFCARSTANTRSTYYLNLWGPGTLVTVSS
VL: DVVMTQTPASVSEPVGGTVTIKCQASQRISSYLSWYQQKPGQRPKLLIFGASTLASGVPSRFKGSGSGTEYTLTISDLECADAATYYCQSYAYFDSNNWHAFGGGTEVVVRT
notes: Control antibody; YP218 VH and VL recombined into human IgG1 CH and CL expression vectors; also called YP218 human IgG1 antibody
Regarding B1, the OD450 in [1] turned out to be 0.17 OD; in test [2] it was 2.54 OD; in test [3], 0.65 OD; in test [4], 0.11 OD; in test [5], 2.33 OD; in test [6] it was 1.42 OD. The OD450 was found to be 0.35 OD in test [7]; 1.9 OD in test [8]; 2.26 OD in [9]; 2.42 OD in test [10]; 0.47 OD in test [11]; 0.97 OD in test [12]. Further, the OD450 came to 0.07 OD in [13], 0.06 OD in test [14], 2.12 OD in test [15] and 0.12 OD in [16].

B2: S009-F7.67.12 (antibody, human IgG1, kappa, V domains shown)
VH: QVQLQQPGTELVKPGASVRLSCRASGYSFSSYWMHWVKQRPGQGLEWLGNINPTTGDINYNEKFRNRATLAVDKSSTTAYLQLTSLTSEDSAVYFCVRHDGFLWGQGTTLTVSS
VL: DIQMTQSPASLSASVGETVTITCRASENIYSYLAWYQQKQGKSPQLLVYYAKTLAEGVSSRFSGSGSGTQFSLKINSLQPEDFGTYYCQHQFGTPRTFGGGTKLEIRR
notes: Human-murine chimeric antibody, human IgG1 heavy and kappa light constant regions
For B2, the OD450 in [1] was 0.05 OD; in test [2], 0.1 OD; in [3], 0.24 OD; in test [4] it was 0.05 OD; in [5], 2.45 OD; in test [6], 0.06 OD. Besides, the OD450 in [7] is 0.11 OD; in [8], 1.93 OD; in test [9], 2.49 OD; in [10], 0.07 OD; in test [11], 0.06 OD; in test [12] it was 0.69 OD. The OD450 in [13] amounted to 0.06 OD; in [14], 0.07 OD; in [15] it was 2.75 OD; in test [16], 0.05 OD.

B3: S009-F7.66.12 (antibody, human IgG1, kappa, V domains shown)
VH: QIPLQQSGPELVKPGASVRISCKASDYAFSSSWMNWVKQRPEKGLEWIGRIFVESGNTHYNDKFNGKATLTADKSSRTAYIQLSSLTSEDSAVYFCTRENIFYHGHSSWFAYWGQGTLVTVSA
VL: DIVLTQSPASLVVSLGQRATISCRAGESVDDFGISYVHWYQQKPGQPPKLLIYRAANLESGIPARFSGSGSRTDFTLTINPVETDDVAIYYCQQNNKDPFTFGSGTKLEIKR
notes: as for B2
Consider B3, for which the OD450 in test [1] turned out to be 0.05 OD; in test [2] it was 0.28 OD; in test [3] it was 0.23 OD; in test [4] it was 0.05 OD; in test [5], 2.25 OD; in [6], 0.06 OD. Besides, the OD450 in [7] is 0.14 OD; in test [8], 1.95 OD; in [9], 2.37 OD; in test [10], 0.09 OD; in test [11], 0.05 OD; in test [12] it was 0.04 OD. In addition, the OD450 was 0.07 OD in test [13], 0.06 OD in test [14], 2.6 OD in test [15] and 0.27 OD in test [16].
